B1: MyD88 death domain (1-117 a.a) fused to GFP at the N-terminus (domain or fragment, human, UniProt Q99836 1-117, looked up)
chain: MAAGGPGAGSAAPVSSTSSLPLAALNMRVRRRLSLFLNVRTQVAADWTALAEEMDFEYLEIRQLETQADPTGRLLDAWQGRPGASVGRLLELLTKLGRDDVLLELGPSIEEDCQKYI
B2: MyD88 TIR domain (159-296 a.a) fused to GFP at the N-terminus (domain or fragment, human, UniProt Q99836 159-296, looked up)
chain: ERFDAFICYCPSDIQFVQEMIRQLEQTNYRLKLCVSDRDVLPGTCVWSIASELIEKRCRRMVVVVSDDYLQSKECDFQTKFALSLSPGAHQKRLIPIKYKAMKKEFPSILRFITVCDYTNPCTKSWFWTRLAKALSLP

Columns and labels:
[1] = molecular target: the molecule itself; test: photon counting histogram
[2] = molecular target: the molecule itself; test: single-molecule fluorescence brightness analysis

Row | Protein | stoichiometry N [1] | stoichiometry N [2]
1 | B1 | 8 | 8 to 10 GFP molecules
2 | B2 | 3 | ~3 GFP fluorophores

Source: publication doi:10.1101/351726 (bioRxiv, 2018)
